Ends that are not written are not given here.
Tests used:
human RXFP1 receptor = target: T1, human RXFP1 receptor (human, UniProt Q9HBX9 1-757); assay: cell-based or functional assay
T1 sequence: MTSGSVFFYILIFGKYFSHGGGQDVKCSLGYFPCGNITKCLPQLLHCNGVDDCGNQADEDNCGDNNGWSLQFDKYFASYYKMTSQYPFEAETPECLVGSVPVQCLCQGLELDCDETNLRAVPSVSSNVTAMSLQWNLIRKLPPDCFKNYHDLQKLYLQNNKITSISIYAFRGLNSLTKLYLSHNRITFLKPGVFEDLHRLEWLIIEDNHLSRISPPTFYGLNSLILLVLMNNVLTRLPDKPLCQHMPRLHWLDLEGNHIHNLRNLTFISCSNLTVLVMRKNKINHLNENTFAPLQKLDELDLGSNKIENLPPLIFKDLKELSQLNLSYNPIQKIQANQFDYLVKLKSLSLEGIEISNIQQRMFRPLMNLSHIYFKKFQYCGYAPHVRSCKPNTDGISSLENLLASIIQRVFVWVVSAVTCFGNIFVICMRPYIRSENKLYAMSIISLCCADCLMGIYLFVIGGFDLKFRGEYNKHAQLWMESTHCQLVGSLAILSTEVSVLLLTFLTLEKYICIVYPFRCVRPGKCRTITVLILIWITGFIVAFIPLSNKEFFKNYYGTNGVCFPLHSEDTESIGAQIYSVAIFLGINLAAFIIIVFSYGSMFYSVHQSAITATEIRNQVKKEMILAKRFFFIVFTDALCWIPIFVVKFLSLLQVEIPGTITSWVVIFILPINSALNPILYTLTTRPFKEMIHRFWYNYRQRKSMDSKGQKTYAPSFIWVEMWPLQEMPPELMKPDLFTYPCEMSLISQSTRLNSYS

human RXFP2 receptor = human RXFP2 receptor (human, UniProt Q8WXD0 1-754); assay: cell-based or functional assay

B1: native, human RLN2 (ligand)
chain 1: QLYSALANKCCHVGCTKRSLARFC
chain 2: DSWMEEVIKLCGRELVRAQIAICGMSTWS
modifications: disulfide (positions not given here); not fully specified (bridges); ends not checked; also: two interchain and one intra-A-chain disulfide, pairing not given here
hRXFP1 EC50 nM GeoMean (cAMP CRE luciferase reporter assay, CHO cells expressing human RXFP1) (human RXFP1 receptor): 0.15 nM | hRXFP2 EC50 nM GeoMean (cAMP CRE luciferase reporter assay, CHO cells expressing human RXFP2) (human RXFP2 receptor): 1.7 nM
